Assay results published in US5627154A, “Calcium channel blocking polypeptides from Heteropoda venatoria” (Pfizer Inc., priority 1995, dated 1997).
Where no end group is shown, it is not given here.

target: calcium channels; conditions: not given

Molecule	IC50 for blocking calcium channels (decrease in fura2 fluorescence)
DDCGTLFSGCDTSKDCCEGYVCHLWCKYK-NH2 (not fully specified (bridges); also: 3 disulfide bonds, pairing not given here) [Heteropoda peptide KJ 1]	< 3 µM
DCGTIWHYCGTDQSECCEGWKCSRQLCKYVIDW-NH2 (not fully specified (bridges); also: 3 disulfide bonds, pairing not given here) [Heteropoda peptide KJ 5]	< 3 µM
DDDCGWIMDDCTSDSDCCPNWVCSKTGFVKNICKYEM-NH2 (not fully specified (bridges); also: 3 disulfide bonds, pairing not given here) [Heteropoda peptide AU 5A]	< 3 µM
ADCGWLFHSCESNADCCENWACATTGRFRYLCKYQI-NH2 (not fully specified (bridges); also: 3 disulfide bonds, pairing not given here) [Heteropoda peptide AU 5B]	< 3 µM
DCGTIWHYCGTDQSECCEGWKCSRQLCKYVIDW-NH2 (not fully specified (bridges); also: 3 disulfide bonds, pairing not given here) [Heteropoda peptide AU 3]	< 3 µM
DDCGGLFSGCDSNADCCEGYVCRLWCKYKL-NH2 (not fully specified (bridges); also: 3 disulfide bonds, pairing not given here) [Heteropoda peptide AU 2]	< 3 µM
ECGTLFSGCSTHADCCEGFICKLWCRYERTW-NH2 (disulfide (positions not given here)) [Heteropoda peptide KJ 7]	< 3 µM
ECGTLFSGCSTHADCCEGFICKLWCRYERTW-NH2 (not fully specified (bridges); also: 3 disulfide bonds, pairing not given here) [Heteropoda peptide AU 5C]	< 3 µM
DDCGKLFSGCDTNADCCEGYVCRLWCKLDW-NH2 (disulfide (positions not given here)) [Heteropoda peptide KJ 6]	< 3 µM

system: calcium channels; conditions: read-out: IC50 values for blocking calcium channels; cerebellar granule cells from 8 day old rats, fura2 fluorescence, 37° C.

Molecule	IC50
COc1ccc(CCN(C)CCCC(C#N)(c2ccc(OC)c(OC)c2)C(C)C)cc1OC (stereo not shown) [Verapamil]	4.8 µM
